Test results from patent US11319368B2, “Treatment of hepatotoxicity with IL-11 antibody” (Singapore Health Services PTE LTD., priority 2019, dated 2022).
“Also recorded” adds a separate entry of the source.

Experiments:
NOX4 = molecular target: T1, NOX4 (Homo sapiens, UniProt Q9NPH5); test: NOX4 inhibitor in rhIL11-stimulated human hepatocytes; format: cell-based; conditions: rhIL11 10 ng ml^-1, 24 h
T1 construct: Human hepatocytes (5200, ScienCell) were maintained in hepatocyte medium; host or cells: primary human hepatocytes
T1 sequence (Q9NPH5 whole entry): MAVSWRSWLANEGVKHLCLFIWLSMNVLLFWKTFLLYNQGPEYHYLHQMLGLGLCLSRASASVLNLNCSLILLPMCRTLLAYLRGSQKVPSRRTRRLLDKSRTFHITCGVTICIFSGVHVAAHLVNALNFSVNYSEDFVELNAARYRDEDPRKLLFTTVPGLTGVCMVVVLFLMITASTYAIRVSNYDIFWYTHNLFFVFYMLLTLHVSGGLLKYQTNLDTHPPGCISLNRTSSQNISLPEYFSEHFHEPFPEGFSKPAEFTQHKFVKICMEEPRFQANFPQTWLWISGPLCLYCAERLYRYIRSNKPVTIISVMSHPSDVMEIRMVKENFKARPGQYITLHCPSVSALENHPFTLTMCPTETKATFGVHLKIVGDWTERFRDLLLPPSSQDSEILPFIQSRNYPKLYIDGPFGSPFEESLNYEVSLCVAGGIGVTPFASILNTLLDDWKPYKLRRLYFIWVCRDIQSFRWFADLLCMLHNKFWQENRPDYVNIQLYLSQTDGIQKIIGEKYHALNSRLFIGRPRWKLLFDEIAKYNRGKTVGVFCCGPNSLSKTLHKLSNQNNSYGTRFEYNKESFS
T1 sequence (P13498 2-195 partner limits assumed): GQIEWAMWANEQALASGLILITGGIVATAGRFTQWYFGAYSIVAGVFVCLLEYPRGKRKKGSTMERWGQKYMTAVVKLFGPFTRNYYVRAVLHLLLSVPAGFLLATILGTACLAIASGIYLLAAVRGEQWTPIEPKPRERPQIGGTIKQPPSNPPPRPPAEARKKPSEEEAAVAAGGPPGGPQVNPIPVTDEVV

human hepatocytes [1] = test: APAP-mediated activation of Erk and Jnk, western blot; format: cell-based; conditions: APAP 10 mM, 24 hours; X209 2 μg/ml
[2] = test system: APAP overdose acute liver injury; test: Severe APAP overdose in mice, anti-IL11Rα antibody (X209) 16 h before; format: in vivo, mouse; conditions: 20 mg/kg IP 16 hours before APAP 400 mg/kg
[3] = test system: APAP overdose acute liver injury; test: Severe APAP overdose in mice, X209 10 h after; format: in vivo, mouse
Procedure: Mice were euthanized at 24, 36 and 48 hours. Serum ALT levels were analysed as described in Example 4.
Livers were harvested, and fixed as described in Example 4, and digital photographs were taken.
Western blots were also performed on protein extracts prepared from the livers of the mice.

lethal APAP overdose = test: Lethal APAP overdose in mice, X209 10 h after; format: in vivo, mouse; conditions: for gross liver morphology / serum ALT levels versus normal (saline) control mice: day 8 after APAP 550 mg/kg, 20 mg/kg 10 h after
Procedure: Mice were euthanized at 24 hours and 192 hours (8 days). Serum ALT levels were analysed as described in Example 4. Livers were harvested, and fixed as described in Example 4, and digital photographs were taken.

[4] = test system: primary human hepatocytes; test: APAP-challenged primary human hepatocytes with X209; format: cell-based; conditions: APAP 20 mM, X209 2 μg ml^-1, 24 h
Description: PI^+ve cells were quantified with the flow cytometer (Fortessa, BD Biosciences) and analyzed with FlowJo version 7 software (TreeStar).

AILI [5] = test: X209, NAC or NAC+X209 3 h after APAP in mice
Procedure: (§1) Mice were administered anti-IL11Rα (X209) or IgG isotype control antibody at different times and doses, as described above or in the figure legends.
(§2) The levels of alanine transaminase (ALT) or aspartate aminotransferase (AST) in mouse serum and hepatocyte supernatant were measured using ALT Activity (ab105134, Abcam) or AST (ab105135, Abcam) Assay Kits. Liver glutathione sulfhydryl (GSH) measurements were performed using Glutathione Colorimetric Detection Kit (EIAGSHC, Thermo Fisher). All colorimetric assays were performed according to the manufacturer's protocol.
Western blots were carried out from hepatocyte and liver tissue lysates. Hepatocytes and tissues were homogenized in radioimmunoprecipitation assay (RIPA) buffer containing protease and phosphatase inhibitors (Thermo Fisher), followed by centrifugation to clear the lysate. Protein concentrations were determined by Bradford assay (Bio-Rad). Equal amounts of protein lysates were separated by SDS-PAGE, transferred to PVDF membrane, and subjected to immunoblot analysis for the indicated primary antibodies. Proteins were visualized using the ECL detection system (Pierce) with the appropriate secondary antibodies.

AILI [6] = test: X209 preventive dosing 16 h prior to APAP in mice (6.8)
Procedure: as §1, §2
Livers were fixed for 48 h at room temperature (RT) in 10% neutral-buffered formalin (NBF), dehydrated, embedded in paraffin blocks and sectioned at 7 μm. Sections were stained with H&E according to standard protocol and examined by light microscopy.

human hepatocytes [7] = test: APAP-mediated hepatocyte death, Annexin V/PI flow cytometry; conditions: APAP 20 mM, 24 hours; X209 2 μg/ml
Procedure: Cells were serum-starved for 16 hours prior to their used in experiments, by culture in serum-free hepatocyte medium.
Hepatocytes were then stained using the FITC Annexin V/Dead Cell Apoptosis Kit (V13242, Thermo Fisher) according to the manufacturer's instructions, and Annexin V-FITC/PI-stained cells were analysed by flow cytometry using a BD LSRFortessa flow cytometer (BD Bioscience). 10,000 cells were analyzed per sample. Data was analyzed using FlowJo version 7 software.

[8] = test system: APAP-induced liver injury; test: Mouse model of APAP-induced liver injury, anti-IL-11Rα antibody 16 h prior to APAP (Example 2)
Procedure: Liver samples were excised and fixed for 48 hours at room temperature in 10% neutral-buffered formalin (NBF), dehydrated, embedded in paraffin blocks and sectioned at 7 μm. Sections were stained with Hematoxylin&Eosin (H&E) according to standard protocol and examined by light microscopy.

[9] = 20 mg/kg 10 h after APAP 400 mg/kg
[10] = 20 mg/kg IP 10 hours after APAP 400 mg/kg
[11] = listed as Antagonist antibody inhibitor of IL-11 mediated signalling
[12] = 10 mg/kg IP 16 hours prior to APAP 400 mg/kg

CN(C)c1cccc(-c2c3c(=O)n(-c4ccccc4Cl)[nH]c3cc(=O)n2C)c1 [GKT-13781]
IL11-stimulated GSH depletion, CASP3 activation and cell death (NOX4): prevented IL11-stimulated GSH depletion, CASP3 activation and cell death in a dose-dependent manner

B1: X209: antagonist (neutralizing) anti-IL11Rα antibody (Widjaja et al., Gastroenterology 2019; Aldevron) (antibody, V domains shown)
VH: QVQLQQPGAELVRPGSSVKLSCKASGYTFTNYWMHWLKQRPVQGLEWIGNIGPSDSKTHYNQKFKDKATLTVDKSSSTAYMQLNSLTSEDSAVYYCARGDYVLFTYWGQGTLVTVSA
VL: DIVLTQSPATLSLSPGERATLSCRASQSISNNLHWYQQKSHEAPRLLIKYASQSISGIPARFSGSGSGTDFTLSFSSLETEDFAVYFCQQSYSWPLTFGQGTKLEIK
levels of p-ERK and pJNK (human hepatocytes [1]): substantially reduce the levels of p-ERK and pJNK
hepatocyte necrosis, H&E [2]: substantially less hepatocyte necrosis
serum ALT levels ([2]; 24 hours after APAP): substantial reduction in serum ALT levels
EdU staining, nuclei with recent DNA synthesis [3, 9]: very large numbers of nuclei with evidence of recent DNA synthesis
cleaved CASP3 in liver [3, 9]: reduction in cleaved CASP3 at 24 h
liver damage (gross anatomy, histology, serum IL11, ALT and AST levels) [3, 9]: largely reversed liver damage by the second day after APAP
liver regeneration markers (PCNA, Cyclin D1/D3/E1, p-RB) [3, 9]: strong upregulation of PCNA, Cyclin D1/D3/E1, and phosphorylation of RB
gross liver morphology [3, 10]: restore gross liver morphology
hepatic ERK and JNK activation (p-ERK, pJNK1, pJNK2), western blot [3, 10]: substantially reduced the levels of p-ERK, pJNK1 and pJNK2; also recorded: effectively blocked ERK and JNK activation
serum ALT levels ([3]; 20 mg/kg IP 10 hours after APAP 400 mg/kg, 24, 36 and 48 hours): substantial reduction in serum ALT levels
survival by the study end (lethal APAP overdose; 20 mg/kg 10 h after lethal APAP 550 mg/kg, 8 days): 90%
survival relative to IgG-treated controls (lethal APAP overdose; 20 mg/kg IP 10 hours after APAP 550 mg/kg, monitored 8 days): significantly improved survival
gross liver morphology (lethal APAP overdose): normal liver morphology
serum ALT levels versus normal (saline) control mice (lethal APAP overdose): comparable to controls
gross liver morphology (lethal APAP overdose; [11]): restore gross liver morphology
serum ALT levels versus normal (saline) control mice (lethal APAP overdose; [11]): not significantly different
APAP-induced NOX4 upregulation and depletion in hepatocyte GSH levels [4]: blocked
CASP3 cleavage, cell death, ERK and JNK activation [4]: inhibited CASP3 cleavage and cell death, as well as ERK and JNK activation
JNK and ERK activation (AILI [5]; 2.5-10 mg kg^-1 3 h after APAP): Reduced JNK and ERK activation
markers of liver damage and hepatic GSH levels (AILI [5]; 2.5-10 mg kg^-1 3 h after APAP): dose-dependent improvements in markers of liver damage and in hepatic GSH levels
ALT reduction (AILI [5]; 3 h after APAP, NAC 500 mg kg^-1, X209 5 mg kg^-1): 47%
centrilobular necrosis, histology (AILI [6]; 10 mg kg^-1 16 h prior to APAP): limited histological evidence of centrilobular necrosis
hepatic GSH levels (AILI [6]; 10 mg kg^-1 16 h prior to APAP): largely restored hepatic GSH levels
reduction of serum markers of liver damage (AILI [6]; 10 mg kg^-1 16 h prior to APAP 400 mg kg^-1): over 70%
proportion of dead hepatocytes (human hepatocytes [7]): substantially reduce the proportion of dead hepatocytes
APAP-induced loss in liver mass (liver index) [8, 12]: prevent APAP-induced loss in liver mass
centrilobular necrosis, H&E liver histology [8, 12]: reduced
ALT levels lower compared to IgG control ([8]; 10 mg/kg IP 16 hours prior to APAP 400 mg/kg, 24 hours post-APAP): 55%
mobility and activity of the mice ([8]; 24 hours post-APAP treatment): normal mobility and activity
